Data reported in patent US20260274983A1 (MODERNATX, published 2026).

B1: CD38-VHH1 (VHH)
VHH: QVQLVESGGGLVQPGDSLRLSCAASGFILDTYSVAWFRQAPGKEREGVSCISSRDGNTFYSDSVKGRFTISRDNAKNTVYLQMNSLKSEDTAVYTCAAGAQAHCTIFTSYFNSDYYRRYNYWGQGTQVTVSS
B2: BCMA-VHH17 (Fc fusion)
chain: QVQLVESGGGLVQAGGSLRLSCAASGRTFSGYTMAWFRQAPGSEREFVAAAVGSDGSTYYVDSVKGRFTMSRDSAKNTVYLMMTSLQPVDSAVYFCVKLDSGAWSLAEWGQGTQVTVSS
notes: not shown: Fc of the Fc formatted construct
B3: CD38-VHH7 (VHH)
VHH: QVQLVESGGGLVHTGGSLRLSCAASGSISGLNTMGWYRQAPGKQRELVATIISGTMTRYADSVKGRFTISKDNAKNTVYLQMNSLKPEDTAVYYCTFKEITRDSRSYWGQGTQVTVSS
B4: BCMA-VHH13 (Fc fusion)
chain: QVQLVDSGGRLVQAGDSLRLSCSASGFTFGSYWMFWVRQAPGKGLEWVSAIDTSGGHVYYGDSVNGRFTISRDNAKNTLYLQMNSLKPEDTALYYCARVENTWESIYWGQGTTVTVSS
notes: as for B2
B5: CD38-VHH8 (VHH)
VHH: QVQLVESGGGLVQAGGSLRLSCAASGSSVSMNSMAWYRQAPGKQRELVALITPGDRINYADFVKGRFTISRDNAKNTVNLQMNNLKPEDTAVYYCNIGATRPPFGAWGQGTQVTVSS
B6: BCMA-VHH8 (Fc fusion)
chain: QVQLVQSGGGLVLPGGSLRLSCAASGFTLSSYWMHWLRQAPGKGLEWVSAIKPESGITYYAESMKGRFTISRDNAKNTLYLQMNSLKSEDSALYYCVREDYDSAYVGDYWGKGTQVTVSS
notes: as for B2
B7: BCMA-VHH15 (Fc fusion)
chain: QVQLVESGGGLVQPGGSLRLSCAASGFTFSTYSMYWVRQAPGKGLEWVSAIDARGVNTYYADSVRGRFTVSRDNAKNTLYLQMNNLKLEDTALYYCGGWEFATWGRGTQVTVSS
notes: as for B2
B8: CD38-VHH12 (VHH)
VHH: QVQLVESGGGLVQAGGSLRLSCVASGIIFRIFSMGWYRQAPGKQRELVATITSGGNTNYAHSVKGRFTISRDDAKNTVNLQMNSLKPEDTAVYYCNVAIPSGIVDRSAWGQGTQVTVSS
B9: BCMA-VHH1 (Fc fusion)
chain: AVQLVDSGGGLVTAGDSLTLSCVASGRTLSPYTAGWFRQAPGREREFVALITARGDWTSYSDSVKGRFTISRDNAKNTIYLQMNSLEPEDTALYYCVRDLLGRDDYWGQGTQVTVSS
notes: as for B2
B10: BCMA-VHH2 (Fc fusion)
chain: HVQLVESGGGLVQTGGSLRLSCAASGRTLNNYVVAWFRQAPGKEREFVATMWWSGGSPWYSDNVKGRFTISRDNAKNTLYLQMNSLRPEDTAVYYCAATWVGTSEYRHWGQGTQVTVSS
notes: as for B2
B11: BCMA-VHH4 (Fc fusion)
chain: QVKLEESGGGLVQTGGSLRLSCAASGRTLNNYVVAWFRQAPGKEREFVATMWWSGGSPWYSDNVKGRFTISRDNAKNTLYLQMNSLRPEDTAVYYCAATWVGTSEYQHWGQGTQVTVSS
notes: as for B2
B12: CD38-VHH2 (VHH)
VHH: QVQLVESGGGLVQPGGSLRLSCAASGFIFSDKVMSWVRQAPGKGREWVSTITPGGTATSYTESVKGRFTISRDNAKNTLYLQMNNLKPDDTALYYCRIGGPGGRYDNWGQGTQVTVSS
B13: BCMA-VHH20 (Fc fusion)
chain: QVQLVESGGGLVQPGGSLRLSCAASGFTFSNYAMIWVRQAPGKGLEWVSSINANSDTTAYSDSVKGRFAISRDNARNTLYLQMNSLKPEDTAVYFCVSDSYIGGLYATYVYWGQGTQVTVSS
notes: as for B2
B14: BCMA-VHH11 (Fc fusion)
chain: QVQLVDSGGGLVQPGGSLRLSCAASGFTFSSYWMYWVRQAPGKGLEWVSAINTDGDSTYYADSVKGRFTVSRDVAGNMIYLQMTNLKPEDTAVYTCAAIVTRSDGHQYDYWGRGTQVTVSV
notes: as for B2
B15: CD38-VHH5 (VHH)
VHH: QVQLVESGGGLVQTGGSLRLSCVASGAIVSAESMGWYRQAPGNQRELVAEIISGSKSNYGESVKGRFTISRDNAENTVYLQMNSVKPEDTAVYYCKRTERIWTNNPQVYWGQGTQVTVSS
B16: CD38-VHH6 (VHH)
VHH: QVQLVESGGGLVQAGGSLRLSCAASGTFSSINLMGYYRQAPGKQREFVARDYTEGTTDYADSVKGRFTISRDNTKKTVFLQMNNLKPEDTAIYYCWLMVRAGDVYWGQGTQVTVSS
B17: CD38-VHH3 (VHH)
VHH: QVQLVESGGGLVQAGGSLTLSCAASRSIFEINTMTMGWYRQAPGKQRELIAASRGATTNYADSVKGRFTISRDNAKNTVYLQMNSLKPEDTAVYYCSADRYGFGYGDNDYWGQGTQVTVSS
B18: BCMA-VHH16 (Fc fusion)
chain: QVKLEESGGGLVQAGGSLRLSCAASGHTFSNSAMGWIRQAPGKEREFVAAISLNGGNTHYAESVKGRFAISRDNAKNTMYLQMNSLKPEDTAVYYCATLGFASWGQGTQVTVSS
notes: as for B2
B19: BCMA-VHH3 (Fc fusion)
chain: QVQLVESGGGLVQAGGSLRLSCAASGSIFAYHVMGWYRQAPGKQRELVALITSGGSTNYTDSVKGRFTISRDNAKNTVYLQMNSLKPEDTAVYYCAIGYYSGSYYWERSGDYWGQGTQVTVSS
notes: as for B2
B20: BCMA-VHH7 (Fc fusion)
chain: EVQLVDSGGGLVQAGGSLRLSCAASGSTFSRYAMGWIRQAPGKEREFVAAISWSGGSTYYADSVKGRFTISRDVAKNTVSLQMNSLKPEDAGVYFCFGDIIRSGERSDYEYWGQGTRVTVTS
notes: as for B2
B21: BCMA-VHH18 (Fc fusion)
chain: PVQLVESGGGLVQAGGSLRLSCAASGRTFSSYAMGWFRQAPGKEREFVAGVSWTGDNTGYADSVKGRFTISRDNFKSTVYLEMNSLKPEDTAVYFCAAWNWGHHEYTYWGRGTQVTVSS
notes: as for B2
B22: CD38-VHH9 (VHH)
VHH: QVQLVESGGGLVQAGGSLRLSCVASGFIYSISTMGWYRQAPGKQRELVATITSGGNTNYADSVKGRFTISRDNAQNTVYLQMNNLKPEDTAIYYCNTAWRETIVSRVWGQGTQVTVSS
B23: BCMA-VHH9 (Fc fusion)
chain: QVKLEESGGGFVQPGGSLRLSCAASGFTYSSYWMHWVRQAPGKGLEWVSGISTGGDTTDTYYADSVKGRFTISRDNAKNTLYLQMNSLKPEDTAVYYCVALNLWGTDLEHDYWGRGTQVTVSS
notes: as for B2

Key:
CD38 [1] = biological target: T1, CD38 (UniProt P28907 1-300, limits assumed); assay: FACS on H929 cells, VHH-His
T1 construct: whole, on cells; also called CD38 on RPMI8226 cells; CD38 on H929 cells
T1 sequence (looked up): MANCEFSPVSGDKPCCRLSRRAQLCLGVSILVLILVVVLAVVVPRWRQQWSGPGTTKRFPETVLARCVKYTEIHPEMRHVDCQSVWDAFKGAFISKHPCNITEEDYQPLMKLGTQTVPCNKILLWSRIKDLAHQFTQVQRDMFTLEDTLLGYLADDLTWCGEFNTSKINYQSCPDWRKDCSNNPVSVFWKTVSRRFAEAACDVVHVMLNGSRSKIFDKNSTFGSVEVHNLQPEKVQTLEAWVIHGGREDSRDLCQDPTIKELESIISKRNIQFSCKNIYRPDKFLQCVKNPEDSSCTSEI

CD38 [2] = biological target: T1, CD38; assay: FACS on RPMI8226 cells, VHH-His
human BCMA [3] = biological target: T2, human BCMA (human, UniProt Q02223 1-184); assay: FACS on H929 cells, Fc formatted
T2 construct: whole, on cells; Human is stated only for CHO-HuBCMA; also called HuBCMA; B-cell maturation antigen
T2 sequence (looked up): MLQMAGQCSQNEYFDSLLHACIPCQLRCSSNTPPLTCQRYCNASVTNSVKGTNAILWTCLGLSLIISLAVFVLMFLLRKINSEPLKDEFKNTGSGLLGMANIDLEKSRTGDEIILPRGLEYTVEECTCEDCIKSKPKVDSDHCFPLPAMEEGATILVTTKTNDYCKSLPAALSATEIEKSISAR

human BCMA [4] = biological target: T2, human BCMA; assay: FACS on CHO-HuBCMA cells, Fc formatted

| Binder | EC50 (CD38 [1]) [nM] | EC50 (CD38 [2]) [nM] | EC50 (human BCMA [3]) [nM] | further results |
| --- | --- | --- | --- | --- |
| B1 | 4.43 | < 1 | – | – |
| B2 | – | – | 1.01 | – |
| B3 | 3.55 | 1.91 | – | – |
| B4 | – | – | 15.5 | – |
| B5 | 2.06 | 0.45 | – | – |
| B6 | – | – | – | EC50 (human BCMA [4]): 170 nM |
| B7 | – | – | – | EC50 (human BCMA [4]): 1.76 nM |
| B8 | 25.7 | 10.5 | – | – |
| B9 | – | – | 78 | – |
| B10 | – | – | – | EC50 (human BCMA [4]): 0.8 nM |
| B11 | – | – | – | EC50 (human BCMA [4]): 0.57 nM |
| B12 | 6.14 | 1.01 | – | – |
| B13 | – | – | 83.4 | – |
| B14 | – | – | 45.9 | – |
| B15 | – | 71.3 | – | – |
| B16 | 101 | 28.4 | – | – |
| B17 | 1.36 | 0.35 | – | – |
| B18 | – | – | 41.8 | – |
| B19 | – | – | 11 | – |
| B20 | – | – | 268 | – |
| B21 | – | – | – | EC50 (human BCMA [4]): 1020 nM |
| B22 | 2.62 | 0.51 | – | – |
| B23 | – | – | 43.4 | – |
